Measurements taken from doi:10.1101/2020.05.06.071340.

Experiments:
[1] = biological target: T1, TOC1-CCT (Arabidopsis, UniProt Q9LKL2 533-575); assay: EMSA
T1 chain: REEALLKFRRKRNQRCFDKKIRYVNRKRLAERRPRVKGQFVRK

[2] = biological target: T1, TOC1-CCT; assay: ITC
[3] = biological target: T2, CCTN (Arabidopsis, UniProt Q9LKL2 533-565); assay: NMR
T2 chain: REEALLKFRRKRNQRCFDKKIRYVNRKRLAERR

[4] = biological target: T3, CCT (NMR construct) (Arabidopsis, UniProt Q9LKL2 533-590); assay: NMR
T3 sequence: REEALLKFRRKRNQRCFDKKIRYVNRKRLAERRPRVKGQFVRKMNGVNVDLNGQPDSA

## AAAUAAAUGGAGGGGAAAAAUAAAU (ssRNA) [G-rich RNA probe]
[1]
  Kd: 110 ± 6 nM
[2]
  Kd: 124 ± 8 nM

## UGGAGGGGA (ssRNA) [NMR RNA]
[3]
  binding result: binds
[4]
  binding result: binds
